We go through five molecules from patent US20260242430A1, “NOVEL FUNGAL DERIVED COMPOUNDS” (Aalborg Universitet, priority 2023, published 2026).

Experiment [1] concerns Apiosporin from a lysate of Apiospora arundinis (Isolate AAU773). Kind of experiment: Octet measurement of sdAbs capturing Apiosporin from fungal lysate. It is filed as binding. The method, then:
The Aim was to establish that selected antibody fragments could capture their target antigen Apiosporin from a lysate of WT Apiospora arundinis (Isolate AAU773), whereas no antigen would be bound specifically to the antibody fragments when KO Apiospora arundinis were applied in the binding assay.
The sdAbs produced as in example 9 were applied to amine reactive biosensors from Sartorius for the Octet instrument. First the reagents were prepared according to the AR2G kit instructions. For a standard immobilization scouting assay 200 μL/well of water was added to column 1 of a 96-well plate. The 200 μL/well 1 M ethanolamine pH 8.5 were added to column 4. 200 μL/well assay running buffer into column 5. Here the provided Kinetics Buffer (dilute the 10× Kinetics Buffer 10-fold in PBS) was used. 200 μL/well of the sdAbs were added to column 6 at a concentration of 500 nM. The sdAbs were prepared to be immobilized. Protein was prepared in each of the 10 mM acetate buffers at pH 4, 5 and 6. A starting ligand concentration of at least 20 μg/mL is recommended. The ligand concentration may be decreased as low as 5 μg/mL if the immobilization time is extended; some performance loss is expected at lower ligand concentrations. Prepare 500 μL at each pH.
As Apiosporin is present in an unknown concentration in the crude extracts, it is not possible to estimate a Kd from the sensorgram. Also, it is not possible to fit the raw data to a nice binding curve when a ligand concentration is not known. However, in order to allow fitting a concentration of 100 nM and 10 nM (resulting in almost identical fitting curves) of Apiosporin were inserted. The same fitting settings were used for all (data correction aligning to the association step with baseline correction to dissociation, Savitzky-Golay filtering to smoothen the curves, 1:1 model graph fitting to association and dissociation separately). […] It thus establishes that there is a normal association/dissociation between Apiosporin and sdAbs for the WT, but no association/dissociation for the KO as expected. Thus, it is seen that the antibodies are specific against the compound produced from the NRPS.
(Biolayer interferometry detects binding as a change in optical thickness at a sensor tip.)

Another experiment has as its system Apiosporin. Kind of experiment: Immunoprecipitation of Apiosporin from fungal extract by sdAbs with mass spec identification. As to conditions: Protein A SpinTrap. It is filed as binding, Apiospora arundinis. The procedure:
50 μl of the partial pure sdAbs prepared in example 9 and 150 μl fungal extract (resuspended in PBS with 500 mM NaCl and 0.2% Tween20) were incubated overnight at 4° C. The mixed sdAb and fungal extract were purified on a SpinTrap Protein A from Cytivia accoridng to manufactures instructions except that the elution was performed into 50% AcN 5% formic acid.
The same immune precipitations were analysed by HPLC-DAD-HRMS using a Hitachi Elite LaChrom HPLC system, equipped with a phenyl-hexyl 100 Å (150×4.6 mm Kinetex 5 μm, Phenomenex) column kept at 40° C. and coupled by a 5:95 flow splitter to a high-resolution mass spectrometer (compact qTOF, Bruker) with an electrospray source (Capilary: 4500 V; end plate offset 500 V; Dry gas 4.0 L/min, 200° C.) operated in positive mode. The injection volume was set to 30 μL and separated using a 1.2 mL/min gradient initiating at 10% solvent A (acetonitrile (HiPerSolv CHROMANORM, VWR) with 0.1% v/v formic acid (MS-grade 98%, Sigma-Aldrich)) in 90% solvent B (water (HiPerSolv CHROMANORM, VWR) with 0.1% v/v formic acid (MS-grade 98%, Sigma-Aldrich)), increasing linearly to 100% solvent A over 17 minutes and held for 6 minutes. After 0.5 minutes from sample injection, 2 μL calibrant (10 mM NaOH and 26 mM formic acid (MS-grade 98%, Sigma-Aldrich) in 1:1 water (HiPerSolv CHROMANORM, VWR): isopropanol) was injected directly to the mass analyser and used for internal spectra calibration. Mass spectrometric instrument control, data recording and data processing was performed using Compass DataAnalysis 4.2 SR2 (Bruker).

Experiment [2] concerns Apiospora arundinis (Isolate AAU773). Kind of experiment: Immunofluorescent staining of Apiospora arundinis with sdAbs. It is filed as cell-based. The following applies: primary sdAb 70 nM, ALFA tag secondary (Alexa 647). The method, then: Apiospora arundinis (Isolate AAU773) were grown in liquid culture and spotted on glass cover slips where they were immobilized using tape. The fungi were fixed by addition of 3.7% paraformaldehyde for 10 min. Then blocking with 5% skim milk in PBS before staining with the primary sdAbs (70 nM) overnight, secondary antibody (ALFA sdAb-FluoTag-X2 from Synaptic Systems, the antibody was labelled with Alexa flour 647 and used at a dilution of 1:500 for 3 h, washing 3×5 min with PBS, then staining for 2 min with calcofluor white stain (calcofluor white 1 g/l, evans blue 0.5 g/l), then wash 1×5 min with PBS.

Setting [3] is: WT fungal extract, 1:1 model fit, Apiosporin concentration assumed 100 nM.

B1: AP2: single domain antibody (sdAb) selected against Apiosporin, SEQ ID NO: 11 (protein)
VHH: EVQLLESGGGLVQPGGSLRLSCAASGFRDSDEDMGWVRQAPGKGLEWVSSIETPDGSTYYADSVKGRFTISRDNSKNTLYLQMNSLRAEDTAVYYCASQPVYSYHFDYWGQGTLVTVSSAAA
Take B1: the “Association/dissociation (binding to ligand) on Octet” value (“Association/dissociation” for short) in experiment [1] (KO fungal extract) was “absent in the KO”; in experiment [1] (setting [3]), “binding to a ligand present in the WT extracts”. Besides, the “Immunoprecipitation of Apiosporin, identified by mass spec” value (“Immunoprecipitation of Apiosporin” for short) with Apiosporin was “identification of Apiosporin after immunoprecipitation”.

B2: AP7: single domain antibody (sdAb) selected against Apiosporin, SEQ ID NO: 31 (protein)
VHH: EVQLLESGGGLVQPGGSLRLSCAASGFRDSDEDMGWVRQAPGKGLEWVSSIEGPSGSTYYADSVKGRFTISRDNSKNTLYLQMNSLRAEDTAVYYCASVTWWTHPFDYWGQGTLVTVSSAAA
Consider B2, for which, in the experiment with Apiosporin, the “Immunoprecipitation of Apiosporin” value was “identification of Apiosporin after immunoprecipitation”.

B3: AP1: single domain antibody (sdAb) selected against Apiosporin, SEQ ID NO: 6 (protein)
VHH: EVQLLESGGGLVQPGGSLRLSCAASGFRDSDEDMGWVRQAPGKGLEWVSSIYSYNGSTYYADSVKGRFTISRDNSKNTLYLQMNSLRAEDTAVYYCASDRGGYNSFDYWGQGTLVTVSSAAA
Take B3: the “Association/dissociation” value was “absent in the KO” in experiment [1] (KO fungal extract) and “binding to a ligand present in the WT extracts” in experiment [1] (setting [3]). Moreover, the “Immunoprecipitation of Apiosporin” value in the experiment on Apiosporin was “identification of Apiosporin after immunoprecipitation”. Further, the results for the “Immunofluorescent staining of septa” value in experiment [2] (KO fungi) and in experiment [2] (WT fungi) were “No clearly staining in septa” and “Staining is clearly shown in septa between two hyphae”, respectively.

B4: AP3: single domain antibody (sdAb) selected against Apiosporin, SEQ ID NO: 16 (protein)
VHH: EVQLLESGGGLVQPGGSLRLSCAASGFRDSDEDMGWVRQAPGKGLEWVSSIGGYNGSTYYADSVKGRFTISRDNSKNTLYLQMNSLRAEDTAVYYCASEGYYTSAFDYWGQGTLVTVSSAAA
As for B4, the “Association/dissociation” value in experiment [1] (KO fungal extract) is “absent in the KO”; in experiment [1] (setting [3]), “binding to a ligand present in the WT extracts”.

B5: AP4: single domain antibody (sdAb) selected against Apiosporin, SEQ ID NO: 21 (protein)
VHH: EVQLLESGGGLVQPGGSLRLSCAASGFRDSDEDMGWVRQAPGKGLEWVSSIDAEDGSTYYADSVKGRFTISRDNSKNTLYLQMNSLRAEDTAVYYCASDSGDWFSFDYWGQGTLVTVSSAAA
In the case of B5, the “Association/dissociation” value in experiment [1] (KO fungal extract) is “absent in the KO”; in experiment [1] (setting [3]) it was “binding to a ligand present in the WT extracts”.
